Assay results from patent US20250145697A1 (WASHINGTON UNIVERSITY, published 2025).
Each block holds one binder with its values, some of them ahead of it.

Legend:
[1] = target: T1, ApoE4 amino acids 54-164, expressed on yeast (human, UniProt P02649 72-182); assay: yeast display of myc-tagged ApoE4 fragment, antibody staining
T1 construct: with myc tag, on yeast cells; expression in yeast printed as Low; range counts on the mature protein; also called helix2 + 3 + 4
T1 chain: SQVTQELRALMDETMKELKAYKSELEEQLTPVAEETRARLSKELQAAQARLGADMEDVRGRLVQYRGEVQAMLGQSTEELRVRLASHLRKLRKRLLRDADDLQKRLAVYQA
Protocol: (§1) Epitope binding of various anti-ApoE antibodies was evaluated multiple ways. Different sequences of human ApoE were expressed on the surface of yeast by yeast display using different plasmids. Different anti-ApoE antibodies were then assessed to determine binding to the different ApoE sequences by immunofluorescence of the yeast cell surface (Table 4). Because none of the anti-ApoE antibodies tested here recognize murine ApoE, the epitope was further narrowed down by comparison of the murine and human ApoE sequences as shown in Tables 4 and 5. DNA constructs containing different regions of ApoE4 with myc tag were transformed into yeast cells. Yeast cells were incubated with HJ15x to detect binding or anti-myc antibody to detect expression.

[2] = target: T2, ApoE4 amino acids 1-164, expressed on yeast (human, UniProt P02649 19-182); assay: as above
T2 construct: with myc tag, on yeast cells; range counts on the mature protein; also called up to helix 4; not shown: myc tag and yeast surface-display partner
T2 chain: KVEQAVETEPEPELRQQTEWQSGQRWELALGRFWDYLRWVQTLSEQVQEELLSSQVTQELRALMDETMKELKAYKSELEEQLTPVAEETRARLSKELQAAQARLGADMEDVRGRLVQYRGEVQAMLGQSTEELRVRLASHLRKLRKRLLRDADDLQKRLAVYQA
Protocol: as §1

[3] = target: T3, ApoE4 amino acids 1-210, expressed on yeast (human, UniProt P02649 19-228); assay: as above
T3 construct: with myc tag, on yeast cells; range counts on the mature protein; also called N terminal domain; not shown: myc tag and yeast surface-display partner
T3 chain: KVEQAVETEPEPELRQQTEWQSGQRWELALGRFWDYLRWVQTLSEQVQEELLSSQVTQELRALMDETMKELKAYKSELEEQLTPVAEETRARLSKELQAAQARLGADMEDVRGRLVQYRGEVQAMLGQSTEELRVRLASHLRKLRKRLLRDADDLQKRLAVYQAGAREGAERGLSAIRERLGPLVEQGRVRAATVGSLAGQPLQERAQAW
Protocol: as §1

[4] = target: T4, ApoE4 amino acids 24-164, expressed on yeast (human, UniProt P02649 42-182); assay: as above
T4 construct: with myc tag, on yeast cells; range counts on the mature protein; also called helix1 + 2 + 3 + 4
T4 chain: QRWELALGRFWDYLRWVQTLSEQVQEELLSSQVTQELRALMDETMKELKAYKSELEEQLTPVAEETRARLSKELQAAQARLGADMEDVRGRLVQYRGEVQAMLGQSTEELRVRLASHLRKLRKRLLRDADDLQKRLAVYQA
Protocol: as §1

[5] = target: T5, recombinant alipidated human ApoE3 (human, UniProt P02649 19-317); assay: direct ELISA on coated recombinant alipidated ApoE (0.5 ug/ml)
T5 construct: mature; full length recombinant protein made in E. coli or bought
T5 sequence (P02649 19-317): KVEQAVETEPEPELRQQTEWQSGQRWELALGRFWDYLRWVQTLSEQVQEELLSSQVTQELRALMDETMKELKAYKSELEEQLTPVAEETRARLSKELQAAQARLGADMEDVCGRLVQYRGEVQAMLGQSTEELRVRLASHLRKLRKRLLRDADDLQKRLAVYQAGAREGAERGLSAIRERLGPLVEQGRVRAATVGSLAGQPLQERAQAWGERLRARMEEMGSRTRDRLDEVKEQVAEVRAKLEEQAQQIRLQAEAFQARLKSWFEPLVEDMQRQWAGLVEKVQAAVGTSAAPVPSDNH
Protocol: (§2) ELISA dose response curves were generated for several anti-ApoE antibodies. Briefly, plates were coated overnight with full length recombinant alipidated ApoE2, ApoE3, or ApoE4 (0.5 μg/ml). The following days, plates were washed, blocked and then incubated with an anti-ApoE antibody. A goat, anti-mouse IgG-HRP antibody was used for secondary detection. Recombinant alipidated ApoE was either expressed solubly in E. coli and then purified, or purchased from a commercial supplier.

[6] = target: T6, recombinant alipidated human ApoE4 (human, UniProt P02649 19-317); assay: as above
T6 construct: mature; full length recombinant protein made in E. coli or bought; biotinylated for SPR; position 112 is counted on the mature protein, not on the precursor entry; also called recApoE; non-lipidated ApoE4
T6 sequence (P02649 19-317 C130R): as the sequence (P02649 19-317) above, with C112R counted along it
Protocol: as §2

murine ApoE = target: T7, murine ApoE (mouse, UniProt P08226 19-311); assay: not described
T7 sequence (looked up): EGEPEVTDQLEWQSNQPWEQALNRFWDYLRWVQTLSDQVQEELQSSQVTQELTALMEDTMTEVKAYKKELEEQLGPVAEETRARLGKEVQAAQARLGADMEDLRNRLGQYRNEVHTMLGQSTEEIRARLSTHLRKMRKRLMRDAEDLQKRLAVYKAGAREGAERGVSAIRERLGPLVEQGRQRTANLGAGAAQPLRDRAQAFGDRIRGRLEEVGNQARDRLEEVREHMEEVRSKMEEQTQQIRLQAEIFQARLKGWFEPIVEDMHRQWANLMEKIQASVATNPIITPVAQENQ

[7] = target: T8, ApoE4 amino acids 1-132, expressed on yeast (human, UniProt P02649 19-150); assay: yeast display of myc-tagged ApoE4 fragment, antibody staining
T8 construct: with myc tag, on yeast cells; range counts on the mature protein; also called up to helix 3; not shown: myc tag and yeast surface-display partner
T8 chain: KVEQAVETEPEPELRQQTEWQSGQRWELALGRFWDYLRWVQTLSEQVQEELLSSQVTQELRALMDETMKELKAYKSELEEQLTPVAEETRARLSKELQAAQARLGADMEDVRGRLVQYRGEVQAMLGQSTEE
Protocol: as §1

[8] = target: T9, ApoE4 amino acids 24-125, expressed on yeast (human, UniProt P02649 42-143); assay: as above
T9 construct: with myc tag, on yeast cells; range counts on the mature protein; also called helix1 + 2 + 3
T9 chain: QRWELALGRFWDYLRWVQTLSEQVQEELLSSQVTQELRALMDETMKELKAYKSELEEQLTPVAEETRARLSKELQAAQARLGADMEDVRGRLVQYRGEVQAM
Protocol: as §1

[9] = target: T10, recombinant alipidated human ApoE2 (human, UniProt P02649 19-317); assay: direct ELISA on coated recombinant alipidated ApoE (0.5 ug/ml)
T10 construct: mature; full length recombinant protein made in E. coli or bought
T10 sequence (P02649 19-317 R176C): as the sequence (P02649 19-317) above, with R158C counted along it
Protocol: as §2

[10] = target: T6, recombinant alipidated human ApoE4; assay: SPR (Biacore T200), biotinylated ApoE4 captured on anti-biotin mAb chip, antibody injected, 1:1 fit
Protocol: The affinity of several anti-ApoE antibodies for ApoE4 was determined by surface plasmon resonance using a BIAcore T200. Anti-biotin monoclonal mouse antibody was immobilized on a Biacore Series S CM5 sensor chip. Biotinylated recombinant alipidated ApoE4 was then captured on to the chip. Serial dilutions of each antibody were injected at a flow rate of 30 μl/min. Each sample was analyzed, for example, with 3-minute association and 10-minute dissociation. After each injection the chip was regenerated using 3 M MgCl₂ or another appropriate buffer. Binding response was corrected by subtracting the response units (RUs) from a flow cell capturing an irrelevant IgG at similar density. A 1:1 Languir model of simultaneous fitting of Kₒₙ and Koff was used for kinetics analysis. Recombinant alipidated ApoE4 was either expressed in soluble form in E. coli and then purified, or purchased from a commercial supplier.

binding result [1]: binds
binding result [2]: binds
binding result [3]: binds
binding result [4]: binds
EC50 [5]: 780 pM
EC50 [6]: 1100 pM
binding result (murine ApoE): no binding
B1: HJ155 (antibody, V domains shown)
VH: RVQLQQSGPGLVKPGASVKISCKASGYTFTDYYINWVRQRPGQGLEWIGWIFPGSGITYYNEKFKGKATLTVDRSSSTAYMLLSSLTSEDSAVYFCARYAYGSPFAYWGQGTLVTVSA
VL: DVLMTQTPLSLPVSLGDQASISCRSSQSIVHSNGNTYLEWYLQKPGQSPKLLIYKVSNRFSGVPDRFSGSGSGTDFTLKISRVEAEDLGVYYCFQGSHVPYTFGGGTKLEIKR
notes: murine monoclonal antibody from hybridoma; also called HJ155B (biotinylated)

binding result [7]: binds
binding result [1]: binds
binding result [2]: binds
binding result [3]: binds
binding result [8]: binds
binding result [4]: binds
EC50 [5]: 50 pM
EC50 [9]: 30 pM
EC50 [6]: 40 pM
Kd [10]: 670000 pM
koff [10]: 0.00528 s⁻¹
kon [10]: 7880 M⁻¹ s⁻¹
B2: HJ1526 (antibody, V domains shown)
VH: QVQLQQPGTALVKPGASVKLSCKSSGYTFTDYWVHWVKQRPGQGLEWIGNINPRNGGINYNENFKGKAILTVDRSFSIAYMQLNSLTSEDSAVYYCARPGATVVHRTPWFAHWGQGTLVTVSA
VL: EIVLTQSPALMAASPGEKVTITCSVSSSISSSNLHWFQQKSETSPKPWIFGTSYLASGVPVRFSGSGSGTSYSLTISSMEAEDAATYYCQQWNSYPLTFGAGTKLELR
notes: murine monoclonal antibody from hybridoma
